Experiments:
[1] = target: SORLA with C-terminal fusion of the C-terminal fragment of venus fluorescent protein (human) (UniProt Q92673); assay: cell-based or functional assay
[2] = target: full-length SORLA with C-terminal GFP-tag (human) (UniProt Q92673); assay: cell-based or functional assay

**Q.** For “SORLA with C-terminal fusion of the N-terminal fragment of venus fluorescent protein, Q92673 82-2214”, which Mander's coefficient, overlap between the green venus signal specific for SORLA dimers and the total SORLA pool [1] is on record?
**A.** 0.37

**Q.** “full-length SORLA with C-terminal FLAG-tag, Q92673 82-2214” was tested. Which Mander's coefficient, co-localization between the PLA signal (representing SORLA dimers) and SORLA-GFP (representing both monomers and dimers) [2] did it give?
**A.** 0.35

Source: patent US20240301030A1
